Results as given in the supplement of paper PMC10724198.
± gives the standard deviation of the averaged measurements.

Tested on: Saccharomyces cerevisiae
Assay: protein stability index of tFT-peptide fusion (C-terminal peptide) (PSI (0-1 scale)); higher = more stable (slower turnover)
Conditions: temperature: 30 C
Method: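 MPS profiling in S. cerevisiae of the yeast C-terminome library: the last 12 aa of each annotated ORF are fused to the C-terminus of a sfGFP-mCherry timer, after a GGGS linker. Cells are FACS-sorted into 8 mCherry/sfGFP bins and deep-sequenced. PSI runs from 0 (unstable) to 1 (stable); wild type and das1Δ backgrounds, two technical replicates each.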

[1] = genetic background: das1 deletion

Sequence	protein stability index [1]	protein stability index (genetic background: wild type)
KKSPGGPRQRIK [MAP1 C-terminal 12 aa]	0.694 ± 0.033	0.692 ± 0.046
KLEKLKAEKTRR [YDL085C-A C-terminal 12 aa]	0.669 ± 0.01	0.673 ± 0.031
KLMEAIFRIRTI [YKL106C-A C-terminal 12 aa]	0.7668 ± 0.0015	0.152 ± 0.0039
KLSNWLFGWNDL [ASM4 C-terminal 12 aa]	0.753 ± 0.019	0.746 ± 0.052
KLVDVRKVYYSS [MRPS5 C-terminal 12 aa]	0.7071 ± 0.0029	0.6234 ± 0.0043
KLYKNSDFNSEK [RRG7 C-terminal 12 aa]	0.7 ± 0.0014	0.694 ± 0.017
KMDKRAKTSDSA [RPL8B C-terminal 12 aa]	0.698 ± 0.0049	0.6802 ± 0.0027
KNLADIHKIMGF [MSW1 C-terminal 12 aa]	0.6849 ± 0.00012	0.709 ± 0.052
KNVTINTRETPL [DAL81 C-terminal 12 aa]	0.694 ± 0.018	0.6712 ± 0.0061
KPDSTAVRNEDE [YNR065C C-terminal 12 aa]	0.7 ± 0.012	0.66 ± 0.072
KQAIYTRAAASE [RPS25B C-terminal 12 aa]	0.682 ± 0.054	0.69 ± 0.0061
KQGKKKKDCVIM [SKT5 C-terminal 12 aa]	0.7193 ± 0.0022	0.696 ± 0.047
KQKEAWYSFLFK [SCO1 C-terminal 12 aa]	0.7138 ± 0.0035	0.68151 ± 0.00058
KQLGSSHNYTVN [SKG6 C-terminal 12 aa]	0.695 ± 0.019	0.696 ± 0.0079
KQPRFQLLFEFS [TTI2 C-terminal 12 aa]	0.687 ± 0.011	0.6511 ± 0.0017
KQYIEPESVKPN [ABD1 C-terminal 12 aa]	0.6996 ± 0.0034	0.722 ± 0.051
KRIDSYIDEMTT [MCO14 C-terminal 12 aa]	0.723 ± 0.011	0.664 ± 0.054
KRLHQLDGIPHA [MEO1 C-terminal 12 aa]	0.703 ± 0.0079	0.6852 ± 0.0018
KRRIEEIQMLFE [RAD5 C-terminal 12 aa]	0.7081 ± 0.0032	0.683 ± 0.036
KRSLRRNARKGL [ESC8 C-terminal 12 aa]	0.721 ± 0.0077	0.687 ± 0.026
KSALSKTLGLNK [NHA1 C-terminal 12 aa]	0.699 ± 0.014	0.7038 ± 0.0048

Sequence	protein stability index [1]	protein stability index (genetic background: wild type)
KSCGNNAGARIC [HO C-terminal 12 aa]	0.7093 ± 0.00098	0.452 ± 0.022
KSLETFRTTNTL [FBA1 C-terminal 12 aa]	0.69 ± 0.011	0.7271 ± 0.0061
KSPSITVNEFFH [RCN2 C-terminal 12 aa]	0.698 ± 0.01	0.734 ± 0.021
KSVPILLPQVCM [YIL059C C-terminal 12 aa]	0.5945 ± 0.0057	0.578 ± 0.0092
KTDKVLYKRNGY [HPA3 C-terminal 12 aa]	0.687 ± 0.02	0.675 ± 0.065
KTFKLLTNKWIH [YAR009C C-terminal 12 aa]	0.704 ± 0.018	0.587 ± 0.014
KVFDRSGIVLEK [QRI1 C-terminal 12 aa]	0.71 ± 0.013	0.701 ± 0.016
KVKCALERKPYL [ZAP1 C-terminal 12 aa]	0.706 ± 0.05	0.6754 ± 0.00096
KVVTRSIVLWGV [YGL235W C-terminal 12 aa]	0.632 ± 0.02	0.615 ± 0.016
KYFLRMVYPMKV [ESBP6 C-terminal 12 aa]	0.4888 ± 0.0038	0.404 ± 0.031
LADHLMEKYLSI [TFC4 C-terminal 12 aa]	0.701 ± 0.025	0.658 ± 0.01
LALNRDDPPDML [PEA2 C-terminal 12 aa]	0.6989 ± 0.0011	0.755 ± 0.13
LAQQLQQDSEAS [SWC5 C-terminal 12 aa]	0.699 ± 0.039	0.701 ± 0.0092
LASDFIGRGYDD [WTM2 C-terminal 12 aa]	0.6962 ± 0.0068	0.678 ± 0.011
LATMILARMSCS [IRA1 C-terminal 12 aa]	0.682 ± 0.023	0.657 ± 0.035
LAYPACLACQAS [VPS69 C-terminal 12 aa]	0.6 ± 0.02	0.59 ± 0.011
LCHYLTPYMIIY [YOL106W C-terminal 12 aa]	0.456 ± 0.016	0.45 ± 0.011
LCILRIVGVANF [YER039C-A C-terminal 12 aa]	0.426 ± 0.0017	0.4474 ± 0.0034
LCSIYKALLLGP [ATF1 C-terminal 12 aa]	0.6813 ± 0.0019	0.67 ± 0.0087
LDAENNNKCSIM [RHB1 C-terminal 12 aa]	0.7192 ± 0.003	0.758 ± 0.027
